According to patent US20220127377A1 (DIACCURATE, published 2022):

Target: T1, human PLA2-GIB (mature, active form) (human, UniProt P04054 23-148)
T1 construct: Recombinant human PLA2GIB standard in the ELISA, and endogenous PLA2GIB of patient plasma in the functional assays; also called GIBsPLA2; sPLA2-GIB
Experiment: sandwich ELISA, coated capture mAb, recombinant human standard
Procedure: Sandwich ELISAs specific to proPLA2-GIB, PLA2GIB or both forms were performed using mAbs previously generated. For the detection of proPLA2GIB, the #8G11 mAb was used as a capture antibody and the #1C11 mAb was used as a revelation mAb. For the detection of PLA2GIB, the #14G9 mAb was used as a capture antibody and the #1C11 mAb was used as a revelation mAb. For the detection of both forms, the #7A10 mAb was used as a capture antibody and the #1C11 mAb was used as a revelation mAb. Typical assay conditions were as follows: #8G11- or #14G9-coated microplate was incubated for one hour with recombinant human proPLA2GIB or PLA2GIB standards (varying concentrations of protein in assay buffer) to generate a calibration curve. EDTA plasma samples were diluted (5- to 50-fold) in dilution buffer to their respective wells and the ELISA plate was incubated for 1 h at room temperature. […] Following washing with PBS containing 0.05% Tween 20, the binding of mAb was detected by treatment with a Streptavidin-HRP conjugate for 15 min at room temperature. TMB was added, reaction was stopped and absorbance at 450 nm was determined on a microplate reader. Signals were analyzed with a 4-parameter fit analysis using Prism™ software (Graph Pad).

T1 sequence (P04054 23-148): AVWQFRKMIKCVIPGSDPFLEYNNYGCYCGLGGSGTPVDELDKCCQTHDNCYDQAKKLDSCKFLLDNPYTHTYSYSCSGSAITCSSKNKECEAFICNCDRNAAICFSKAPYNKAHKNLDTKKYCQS

- binding result: binds
B1: monoclonal antibody 14G9 (antibody, V domains shown)
VH: QVQLQQPGAELVKPGASVKLSCKASGYTFTNYWIHWVKRRPGQGLEWIGNIDPSDTRTHYNQKFKDKATLAVDKSSSTAYMQLSSLTSEDSAVFYCARQTLYYEALDYWGQGTTLTVSS
VL: DIVMTQSHKLMSTSVGDRVSITCKASQDVSTAVAWYQEKPGQSPKLLIYWASTRHTGVPNRFTGSRSGTDYTLTISSVQAEDLALYYCQQDYSTPPTFGAGTKLELKR
notes: also called #14G9 mAb; clone 14G9
